Positions count from the first letter of the chain named.
B1: ADI-41546 (antibody, V domains shown)
VH: QVQLVQSGAEVKKPGESLKISCKGSGYSFTNYWIGWVRQMPGKGLEWMGIIFSADSDTRYSPSFQGQVTISADKSISTAYLQWSSLKASDTAMYYCARQWGITGDAFDIWGQGTMVTVSS
VL: DIQVTQSPSFLSASVGDRVTITCRASQGISGYLAWYQQKPGKAPKLLIYAASTLQSGVPSRFSGSGSGTEFTLTISSLQPEDFATYYCQQLNSYPYTFGQGTKVEIK
B2: ADI-41479 (antibody, V domains shown)
VH: QVQLVQSGAEVKKPGESLKISCKGSGYSFISYWIGWVRQMPGKGLEWMGIIYPADSDTRYSPSFQGQVTISVDKSISTAYLQWSSLKASDTGMYYCVRYGVGGTAPRYWGQGTTVTVSS
VL: NFMLTQPHSVSESPGKTVTISCTGSSGSIASNYVHWYQQRPGSAPTTVIYEDNQRPSGVPDRFSGSIDSSSNSASLTISGLKTEDEADYYCQSYDISNLWVFGGGTKLTVL
B3: ADI-41507 (antibody, V domains shown)
VH: QVTLKESGPTLVKPTQTLRLTCTFSGFSLNVISGVGVGWIRQPPGKALEWLALIYWDDDKRYSPSLKSRLTIAKDTSKNQVVLTMTNMDPVDTATYYCAHKGGSIEAAVGFDYWGQGTLVTVSS
VL: QSVLTQPPSVSGAPGQRVIISCTGSSSNIGAGFAVHWYQQLPGTAPKLLIYANTNRPSGVPDRFSGSKSGTSASLAITGLQAEDEADYYCQSYDTSLSGFYVFGTGTKLTVL
B4: ADI-41477 (antibody, V domains shown)
VH: QVQLVQSGAEVKKPGASVRVSCKASGYPFISYYIHWVRQAPGQGLEWMGMINTNGGSTHYAQKFQGRVTMTRDTSTTTIYMELSRLKSEDTAYYFCARDNTETVLHGFWSGYGSYLDYWGQGTLVTVSS
VL: EIVLTQSPGTLSLSPGGRATLSCRASQSVTSSYLAWYQQRPGQAPRLLIYGASSRAAGIPDRFSGSGSGTDFTLTISRLEPEDFAVYYCQQYGSAPLTFGGGTKLEIK
notes: also called Ab 760; Antibody Number 760
B5: ADI-41465 (antibody, V domains shown)
VH: QVQLVQSGGGVVQPGRSLRLSCAASGFTFTSYDMHWVRQAPGKGLEWVAIISHDGSKQFYADSVKGRFTISRDNSKNTLYLQMNSLRPEDTAMYYCAKDTPSWGLLAEFFRHWGQGTLVTVSS
VL: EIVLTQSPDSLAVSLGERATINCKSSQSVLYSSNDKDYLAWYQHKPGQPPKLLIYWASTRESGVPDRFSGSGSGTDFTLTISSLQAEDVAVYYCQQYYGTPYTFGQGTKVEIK
B6: ADI-41488 (antibody, V domains shown)
VH: EVQLVESGPGLVKPSETLSLTCTVSGGSINSDYWNWIRQTPGKGLEWIGYIFYSGNTNYNPSLKSRVTISIDTSKKKFSLQVTSVTAADTAVYYCARMGTLKFDFDNWGQGTLVTVSS
VL: QSALTQPRSVSGSPGQSVTIPCTGTSSDVGAYKYVSWYQQHPGKAPKLIIYDVTKRPSGVPNRFSGSKSGNTASLTISGLQAEDEADYYCCSYAGTHTYWVFGGGTKVTVL
notes: also called Ab 769; Antibody Number 769
B7: ADI-41525 (antibody, V domains shown)
VH: QVQLVQSGAEMKKPGSSVKVSCKASGRTFKYFALNWMRRAPGHGLEWIGGDIPISGSTNYAQKFQGRVTITADESASTAYMEVSRLRSDDTAVYYCASLHYDVSTGFSDAFDIWGQGTMVTVSS
VL: QSVLTQPASVSGSPGQSITISCTGTSSDVGAYNYVSWYQHHPGKAPKLMIFDVSNRPSGVSNRFSGSKSGNTASLTISGLQAEDEADYYCSSYRSTFSYVFGTGTKVTVL
notes: also called Ab 797; Antibody Number 797
B8: ADI-41458 (antibody, V domains shown)
VH: EVQLLESGSGLVKPSQTLSLTCAVSGDSLNSALYSWSWIRQPPGKGLEWIGYIYYSGSTYYNSSLKSRVTISIDRSKNQFSLNLNSVTAADTAVYYCASLQTGYSSGWFFDFWGPGTLVTVSS
VL: EIVLTQSPGTLSLSPGERATLSCRASQSVSRTYLTWYQQKPGQAPRLLIYGASNRATGIPDRFSGSGSGTDFTLTISRLEPEDFAVYYCQQYGSTPLFGQGTKVEIK
B9: ADI-41462 (antibody, V domains shown)
VH: QVQLQQWGAGLVKPSETLSLSCDVYGGSFSGYYWTWIRQPPGKGLEWIGEINHSGRTNYNPSLKNRVTISVDTSKKQFSLKLSSVTAADTAVYFCARAPYYDIVTDYNITTAYFYGMDVWGQGTTVTVSS
VL: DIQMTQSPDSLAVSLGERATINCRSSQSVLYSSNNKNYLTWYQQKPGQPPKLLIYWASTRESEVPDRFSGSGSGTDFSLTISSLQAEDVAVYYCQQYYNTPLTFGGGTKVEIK
B10: ADI-41544 (antibody, V domains shown)
VH: QVQLVQSGAEVKKPGESLKISCKGSGYSFTNYWIGWVRQMPGKGLEWMGIIFPADSDTRYSPSFQGQVTISADKSVSTAYLQWTSLKASDTAIYYCARLGVAAAGGYWGQGTLVTVSS
VL: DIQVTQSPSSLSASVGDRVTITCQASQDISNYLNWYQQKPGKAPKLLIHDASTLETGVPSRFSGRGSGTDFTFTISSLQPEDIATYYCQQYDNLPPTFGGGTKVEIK
notes: also called Ab 816; Antibody Number 816
B11: ADI-41562 (antibody, V domains shown)
VH: QVQLVQSGAEVKKPGASVRVSCKTSGYAFSKYGISWVRQAPGQGLEWIGWISAYNENTHFSHKFLGRVTMTTDTSTGIAYMDLRSLKSDDTAVYYCARDWYSLGSDWYFGPMFDYWGQGTLVTVSS
VL: EIVLTQSPDTLSVSPGERATLSCRASQSVTTNLAWYQQKPGHAPRLLIYGASTRATGIPARFSGSGSGTEFTLTISSLQSEDFAIYYCQQYTNWPRTFGQGTKVEIK
notes: also called Ab 842; Antibody Number 842
B12: ADI-41574 (antibody, V domains shown)
VH: QITLKESGPTLVKPTQTLTLTCTFSGFSLSTSGVGVAWIRQPPGKALEWLALIYWDDDKRYSPSLKSRLTITKDTSKNQVVLTMTNMDPVDTATYYCAHSSVYTTPFDYWGQGSLVTVSS
VL: DIQLTQSPSTLSASVGDRVTITCRASQSISDWLAWYQQKPGKAPKLLIYKAFTLESGVPSRFSGSGSGTEFTLTISSLQPDDFATYYCQQYTSYWTFGQGTKVEIK
notes: also called Ab 850; Antibody Number 850
B13: ADI-41805 (antibody, V domains shown)
VH: QVQLVQSGAEVKKPGESLKISCKASGYSFTSYWIAWVRQMPGKGLEWMGIIFPGDSDTRYSPSFQGQVTISADKSISTAYLQWSSLEASDTAMYYCAKSTTYYYYGLDVWGQGTTVTVSS
VL: QPVLTQPASVSGSPGQSITISCTGTSSDVGGYDYVSWYQQYPGKAPKLMIYEVSNRPLGVSNRFSGSRSGYTASLTISGLQAEDETNYYCSSYTSSRTWVFGGGTKLTVL
notes: also called Ab 914; Antibody Number 914
B14: ADI-41690 (antibody, V domains shown)
VH: QVQLVQSGAEVKKPGESLRISCKGSGYSFSSHWIGWVRQKPGKGLEWMGIIYPGDSDTRYSPSFQGHVTISADKSISTAYLRWSSLKASDTAIYYCAKRMVGDYYGMNLWGQGTTVTVSS
VL: EIVMTQSPSSLSASVGDRVTITCQASQDISNRLNWYQQKPGKAPKLLIYDASNLETGVPSRFSGSGSGTDFTFTISSLQPEDIATYFCQQYDYLLWFTFGPGTKVDIK
notes: also called Ab 893; Antibody Number 893
B15: ADI-41553 (antibody, V domains shown)
VH: EVQLVESETEVKKPGASVKVSCKASGYTFTKYGISWVRQAPGQGLEWMGWISAYNGNTMYPHKLLGRVTMTTDTSTSTAYMELRSLRSDDTAVYYCARDQTYYDFWSGYYTYWGQGTLVTVSS
VL: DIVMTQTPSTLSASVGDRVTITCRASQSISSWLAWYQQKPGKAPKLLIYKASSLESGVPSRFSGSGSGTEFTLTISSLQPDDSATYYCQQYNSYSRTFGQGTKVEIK
notes: also called Ab 835; Antibody Number 835
B16: ADI-41556 (antibody, V domains shown)
VH: EVQLLESGGGLVKPGGSLRLSCAASGFSFSSYSMHWVRQAPGKGLEWVSSISSSSTYIYYADSVKGRFTISRDNAKTSLFLQMNSLRAEDTAVYYCARDPYSSGWYWDWGQGTTVTVSS
VL: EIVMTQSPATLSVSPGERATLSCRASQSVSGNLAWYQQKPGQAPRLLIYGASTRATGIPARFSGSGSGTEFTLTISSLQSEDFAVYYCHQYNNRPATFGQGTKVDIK
B17: ADI-43641 (antibody, V domains shown)
VH: EVQLVESGGGLVKPGGSLRLSCAASGFTFSDYYMSWIRQAPGKGLEWVSYISSSSSYTNYADSVKGRFTISRDNAKNSLYLQMNSLRAEDTAVYYCARDFSGQWLVLGYGMDVWGQGTTVTVSS
VL: QSVVTQPPSVSGAPGQRVTISCTGSSSNIGAGYDVHWYQQLPGTAPKLLIYGNSNRPSGVPDRFSGSKSGTSASLAITGLQAEDEADYYCQSYDSSLSGPVFGGGTKLTVL
notes: also called Ab 946; Antibody Number 946
B18: ADI-43642 (antibody, V domains shown)
VH: EVQLLESGGGLVKPGGSLRLSCAASGFTFSSYSMNWVRQAPGKGLEWVSSISSSSSYIYYADSVKGRFTISRDNAKNSLYLQMNSLRAEDTAVYYCARDGADSSYYYYMDVWGKGTTVTVSS
VL: B17 VL with S2A, P100S
notes: also called Ab 947; Antibody Number 947

Each binder was assayed against RSV F on RSV-A2 virus (Respiratory Syncytial Virus (RSV-A2), UniProt P03420 26-574) (assay: cell-based or functional assay).

Row | Binder | Neutralization IC50 (RSV subtype A) [µg/mL]
1 | B1 | > 25
2 | B2 | 0.46
3 | B3 | > 25
4 | B4 | > 25
5 | B5 | > 25
6 | B6 | > 25
7 | B7 | > 25
8 | B8 | > 25
9 | B9 | > 25
10 | B10 | > 25

The binders below were run against RSV prefusion F (preF), DS-Cav1 (Respiratory syncytial virus, UniProt P03420 26-513) (assay: BLI, IgG on anti-human IgG sensor).

Row | Binder | binding result
11 | B11 | no binding (tested: 100 nM antigen)
12 | B12 | no binding (tested: 100 nM antigen)
13 | B13 | no binding (tested: 100 nM antigen)
14 | B14 | no binding (tested: 100 nM antigen)
15 | B15 | no binding (tested: 100 nM antigen)
16 | B16 | no binding (tested: 100 nM antigen)

What follows are binders tested against RSV postfusion F (postF), F ΔFP trimer, subtype A (Respiratory Syncytial Virus, subtype A, UniProt P03420 26-513) (assay: BLI, IgG on anti-human IgG sensors).

Row | Binder | binding result
17 | B17 | no binding (tested: 100 nM antigen)
18 | B18 | no binding (tested: 100 nM antigen)

What follows are binders tested against RSV postfusion F (postF), F ΔFP (Respiratory syncytial virus, UniProt P03420 26-513) (assay: BLI, IgG on anti-human IgG sensor, 100 nM antigen).

Row | Binder | Kd [nM]
19 | B11 | 0.676
20 | B12 | 123
21 | B13 | 2
22 | B14 | 8.78
23 | B15 | 0.804
24 | B16 | 2.28

What follows are binders tested against RSV postfusion F (postF), F ΔFP (Respiratory Syncytial Virus, UniProt P03420 26-513) (assay: BLI, IgG on anti-human IgG sensor, 100 nM antigen, 1:1 fit).

Row | Binder | Kd [nM]
25 | B1 | 1.08
26 | B2 | 33.1
27 | B3 | 140
28 | B4 | 0.505
29 | B5 | 1.73
30 | B6 | 0.605
31 | B7 | 0.327
32 | B8 | 0.549
33 | B9 | 1.54
34 | B10 | 0.805

What follows are binders tested against RSV prefusion F (preF), DS-Cav1 (Respiratory Syncytial Virus, UniProt P03420 26-513) (assay: BLI, IgG on anti-human IgG sensor).

Row | Binder | binding result
35 | B1 | no binding
36 | B2 | no binding
37 | B3 | no binding
38 | B4 | no binding
39 | B5 | no binding
40 | B6 | no binding
41 | B7 | no binding
42 | B8 | no binding
43 | B9 | no binding
44 | B10 | no binding

These binders were tested against RSV F on RSV subtype A virus (RSV-A2) (Respiratory Syncytial Virus, subtype A, …, UniProt P03420 26-574) (assay: cell-based or functional assay).

Row | Binder | Neutralization IC50 (RSV subtype A) [µg/mL]
45 | B17 | > 25
46 | B18 | > 25

These binders were tested against RSV F on RSV-A2 virus (Respiratory syncytial virus, RSV-A2, UniProt P03420 26-574) (assay: cell-based or functional assay).

Row | Binder | Neutralization IC50 (RSV subtype A) [µg/mL]
47 | B11 | > 25
48 | B12 | > 25
49 | B13 | > 25
50 | B14 | > 25
51 | B15 | > 25
52 | B16 | > 25

Each binder was assayed against RSV prefusion F (preF), DS-Cav1 stabilized trimer, subtype A (Respiratory Syncytial Virus, subtype A, UniProt P03420 26-513) (assay: BLI, IgG on anti-human IgG sensors, 100 nM antigen, apparent KD).

Row | Binder | Kd [nM]
53 | B17 | 37.5
54 | B18 | 43.2
